Assay results as given in patent publication US20040110688.

Key:
[1] = target: factor X, P00742
[2] = target: T1, factor VIIIa, P00451
T1 chain: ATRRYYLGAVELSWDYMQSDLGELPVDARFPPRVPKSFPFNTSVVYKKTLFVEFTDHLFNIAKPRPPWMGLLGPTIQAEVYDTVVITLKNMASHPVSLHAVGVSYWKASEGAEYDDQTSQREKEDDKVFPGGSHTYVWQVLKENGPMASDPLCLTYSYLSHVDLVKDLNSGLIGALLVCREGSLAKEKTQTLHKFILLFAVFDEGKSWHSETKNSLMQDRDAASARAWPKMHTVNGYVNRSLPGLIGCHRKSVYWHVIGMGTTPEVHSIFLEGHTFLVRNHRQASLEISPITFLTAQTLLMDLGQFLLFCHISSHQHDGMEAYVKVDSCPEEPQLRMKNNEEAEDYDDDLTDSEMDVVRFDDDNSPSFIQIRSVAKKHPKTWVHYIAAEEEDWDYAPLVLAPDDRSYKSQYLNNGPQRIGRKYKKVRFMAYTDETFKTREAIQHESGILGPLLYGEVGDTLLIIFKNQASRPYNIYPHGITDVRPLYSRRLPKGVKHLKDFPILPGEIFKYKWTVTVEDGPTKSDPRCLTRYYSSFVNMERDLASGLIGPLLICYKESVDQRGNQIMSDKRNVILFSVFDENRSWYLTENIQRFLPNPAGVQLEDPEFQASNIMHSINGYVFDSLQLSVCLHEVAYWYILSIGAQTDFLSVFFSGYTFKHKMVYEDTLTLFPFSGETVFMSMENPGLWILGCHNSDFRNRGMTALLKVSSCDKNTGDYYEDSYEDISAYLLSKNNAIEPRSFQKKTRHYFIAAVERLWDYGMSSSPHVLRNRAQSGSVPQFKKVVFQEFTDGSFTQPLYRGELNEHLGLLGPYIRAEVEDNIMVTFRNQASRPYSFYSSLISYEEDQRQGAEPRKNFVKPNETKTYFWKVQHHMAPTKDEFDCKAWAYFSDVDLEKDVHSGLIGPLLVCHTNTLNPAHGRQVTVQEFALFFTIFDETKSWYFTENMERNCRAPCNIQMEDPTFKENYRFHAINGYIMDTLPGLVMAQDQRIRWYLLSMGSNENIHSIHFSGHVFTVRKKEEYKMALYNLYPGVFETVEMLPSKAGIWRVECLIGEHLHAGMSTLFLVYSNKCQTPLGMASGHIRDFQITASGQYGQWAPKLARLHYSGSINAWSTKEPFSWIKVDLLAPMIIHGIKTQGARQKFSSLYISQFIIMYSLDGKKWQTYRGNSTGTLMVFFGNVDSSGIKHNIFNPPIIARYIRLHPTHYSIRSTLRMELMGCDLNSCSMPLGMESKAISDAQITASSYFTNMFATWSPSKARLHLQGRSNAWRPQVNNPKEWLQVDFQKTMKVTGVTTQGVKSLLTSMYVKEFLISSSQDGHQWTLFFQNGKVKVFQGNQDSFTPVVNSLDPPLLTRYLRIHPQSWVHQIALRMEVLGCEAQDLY

B1: IXahelixVII (protein)
chain 1: YNSGKLEEFVQGNLERECMEEKCSFEEAREVFENTERTTEFWKQYVDGDQCESNPCLNGGSCKDDINSYECWCPFGFEGKNCELDVTCNIKNGRCEQFCKNSADNKVVCSCTEGYRLAENQKSCEPAVPFPCGRVSVSQTSKLTR
chain 2: VVGGEDAKPGQFPWQVVLNGKVDAFCGGSIVNEKWIVTAAHCVETGVKITVVAGEHNIEETEHTEQKRNVIRIIPHHNYNAAINKYNHDIALLELDEPLVLNSYVTPICIADKEYTNIFLKFGSGYVSGWGRVFHKGRSALVLQYLRVPRLMTQDCLQSTKFTIYNNMFCAGFHEGGRDSCQGDSGGPHVTEVEGTSFLTGIISWGEECAMKGKYGIYTKVSRYVNWIKEKTKLT
- rate of factor Xa generation, Ca2+ and phospholipid, no VIIIa (20 nM IXa, 100 nM X) [1]: The rate of factor Xa generation in each case was 0.1 nM/min
- X-activation rate, PL-minus system (14 nM VIIIa, 400 nM X) [2]: NM
- X-activation rate, PL-plus system (70 pM VIIIa, 0.5 nM IXa, 15 nM X) [2]: NM
- rate of factor X activation with phospholipid, factor VIIIa increased from 70 pM to 14 nM [2]: for IXahelixVII it was still not measurable
